{"source": "paper PMC2172734", "target": "Abi1, endogenous in mouse fibroblasts (mouse (endogenous in MEFs)) (UniProt Q8CBW3)", "sequence (Q8CBW3 whole entry)": "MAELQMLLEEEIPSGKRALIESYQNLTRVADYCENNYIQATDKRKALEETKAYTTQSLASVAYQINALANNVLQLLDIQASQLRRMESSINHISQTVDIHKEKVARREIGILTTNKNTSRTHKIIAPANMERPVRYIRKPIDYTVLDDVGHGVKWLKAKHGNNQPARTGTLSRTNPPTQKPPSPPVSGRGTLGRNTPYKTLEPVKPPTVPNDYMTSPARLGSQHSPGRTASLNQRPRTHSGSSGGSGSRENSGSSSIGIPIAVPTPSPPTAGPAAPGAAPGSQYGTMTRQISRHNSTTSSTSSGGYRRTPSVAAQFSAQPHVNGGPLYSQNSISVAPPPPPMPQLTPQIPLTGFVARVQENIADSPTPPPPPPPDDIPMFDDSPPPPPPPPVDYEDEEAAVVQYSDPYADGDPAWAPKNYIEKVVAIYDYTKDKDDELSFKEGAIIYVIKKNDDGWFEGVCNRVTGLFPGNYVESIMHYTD", "test": "co-IP", "data": [{"substance": "p85 (regulatory subunit of class I PI3K), endogenous in mouse fibroblasts (from UniProt P26450 1-724) (natural protein)", "values": [{"measurement": "percent of total p85 associated with Abi1 immunoprecipitates", "value": 1, "unit": "%"}]}]}
